# Measurements as given in article PMC9160250, “Nuclear Vav3 is required for polycomb repression complex-1 activity in B-cell lymphoblastic leukemogenesis” (Nature Communications, 2022).
# T1: Bmi1 (mouse (endogenous in Ba/F3 cells and …, UniProt P25916 1-324))
# T1 construct: Bmi1, mouse, endogenous protein of Ba/F3 cells and of primary murine B-cell progenitors; also called PCGF4; source: endogenous, Ba/F3 cells (cytoplasmic and nuclear fractions; fixed cells) and murine B-cell progenitors (fixed cells)
# T1 sequence (looked up): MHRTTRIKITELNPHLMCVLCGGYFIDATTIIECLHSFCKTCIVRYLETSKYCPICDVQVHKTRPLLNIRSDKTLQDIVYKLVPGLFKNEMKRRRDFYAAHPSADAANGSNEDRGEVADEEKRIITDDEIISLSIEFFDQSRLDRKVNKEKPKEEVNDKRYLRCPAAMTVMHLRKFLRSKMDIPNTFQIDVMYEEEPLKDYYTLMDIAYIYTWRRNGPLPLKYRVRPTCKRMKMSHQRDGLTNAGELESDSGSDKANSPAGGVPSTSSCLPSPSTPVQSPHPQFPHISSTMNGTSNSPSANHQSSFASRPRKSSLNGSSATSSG
# B1: Vav3 NA (N369A mutant which loses the GEF activity) (natural protein, UniProt Q9R0C8 1-847, looked up)
# chain: MEPWKQCAQWLIHSKVLPPNHRVTWDSAQVFDLAQTLRDGVLLCQLLNNLRPHSINLKEINLRPQMSQFLCLKNIRTFLAACCDTFGMRKSELFEAFDLFDVRDFGKVIETLSRLSRTPIALATGIRPFPTEESINDEDIYKGLPDLIDETRVEDEEDLYDCVYGEDEGGEVYEDLMKAEEAQQPKSQENDIRSCCLAEIRQTEEKYTETLESIEKYFMAPLKRFLTAAEFDSVFINIPDLVKVHRSLMQEIHDSIVNKDDQNLYQVFINYKERLVIYGQYCSGVESAISNLDYISKTKEDVKLKLEECSKRANNGKFTLRDLLVVPMQRVLKYHLLLQELVKHTHDPMEKANLKLALDAMKDLAQYVAEVKRDNETLREIKQFQLSIENLNQPVLLFGRPQGDGEIRITTLDKHTKQERHIFLFDLAVIVCKRKGDNYEMKEIIDLQQYKIANNPTTDKENKKWSYGFYLIHTQGQNGLEFYCKTKDLKKKWLEQFEMALSNIRPDYADSNFHDFKMHTFTRVTSCRVCQMLLRGTFYQGYLCFKCGAKAHKECLGRVDNCGRVNSVEQGPFKPPEKRTNGLRRASRQVDPGLPKMQVIRNYTGTPAPGLHEGPPLHIQAGDTVELLRGDAHSVFWQGRNLASGEVGFFPSDAVKPSPCVPKPVDYSCQPWYAGPMERLQAETELINRVNSTYLVRHRTKESGEYAISIKYNNEAKHIKILTRDGFFHIAENRKFKSLMELVEYYKHHSLKEGFRTLDTTLQFPYKEPEQPAGQRGNRTGNSLLSPKVLGIAIARYDFCARDMRELSLLKGDMVKIYTKMSANGWWRGEVNGRVGWFPSTYVEEDE
# notes: Vav3 with N369A; also called Vav3(N369A); Vav3N369A; source: lentiviral vector pCDH-EF1-MCS-IRES-GFP, transduced Vav3-/- leukemic murine B-cell progenitors (fixed cells)
# Target: T1, Bmi1
# Assay: proximity ligation; Duolink PLA in fixed, permeabilised primary murine B-cell progenitors on fibronectin-coated slides (empty vector or p190-BCR-ABL transduced; WT, Rac2-/-, or Vav3-/- transduced with empty vector, Vav3 FL or Vav3 N369A); confocal microscopy
# Conditions: partners not purified
binder,measurement,value
B1,fold reduction of the PLA signal against full-length Vav3,~2 fold
